# PMC8847413
# Columns and labels:
# [1] = biological target: prefusion-stabilized trimeric S protein (S ectodomain) of SARS-CoV-2 Delta (B.1.617.2) variant (SARS-CoV-2) (UniProt P0DTC2); experiment: BLI
# [2] = biological target: prefusion-stabilized S protein (S trimer) of SARS-CoV-2 G614 variant (SARS-CoV-2) (UniProt P0DTC2); experiment: BLI
# Sequence of human ACE2 peptidase domain (PD) (Q9BYF1 17-615): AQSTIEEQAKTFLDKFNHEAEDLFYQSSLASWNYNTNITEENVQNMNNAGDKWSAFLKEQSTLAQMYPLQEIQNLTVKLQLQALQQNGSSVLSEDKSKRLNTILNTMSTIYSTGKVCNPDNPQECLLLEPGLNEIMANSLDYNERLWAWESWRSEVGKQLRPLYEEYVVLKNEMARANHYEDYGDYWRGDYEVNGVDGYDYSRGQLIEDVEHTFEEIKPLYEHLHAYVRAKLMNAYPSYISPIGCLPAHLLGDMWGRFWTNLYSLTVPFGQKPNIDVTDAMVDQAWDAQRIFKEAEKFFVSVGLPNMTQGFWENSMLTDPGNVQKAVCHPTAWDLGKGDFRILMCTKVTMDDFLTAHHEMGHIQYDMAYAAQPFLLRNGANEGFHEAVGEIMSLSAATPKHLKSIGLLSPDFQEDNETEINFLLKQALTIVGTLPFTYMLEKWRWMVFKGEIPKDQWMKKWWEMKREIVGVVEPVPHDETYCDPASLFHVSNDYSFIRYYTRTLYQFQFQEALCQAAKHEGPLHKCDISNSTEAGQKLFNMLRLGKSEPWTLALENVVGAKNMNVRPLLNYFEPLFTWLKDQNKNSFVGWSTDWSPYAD
substance,measurement,setting,value
human ACE2 peptidase domain (PD) (from UniProt Q9BYF1) (domain or fragment),Kd,[1],41 nM
same,Kd,[2],87 nM
